The target of the assay is T1, high molecular weight kininogen (HK), purified protein used in ELISA (human, UniProt P01042 19-644).
T1 sequence (looked up): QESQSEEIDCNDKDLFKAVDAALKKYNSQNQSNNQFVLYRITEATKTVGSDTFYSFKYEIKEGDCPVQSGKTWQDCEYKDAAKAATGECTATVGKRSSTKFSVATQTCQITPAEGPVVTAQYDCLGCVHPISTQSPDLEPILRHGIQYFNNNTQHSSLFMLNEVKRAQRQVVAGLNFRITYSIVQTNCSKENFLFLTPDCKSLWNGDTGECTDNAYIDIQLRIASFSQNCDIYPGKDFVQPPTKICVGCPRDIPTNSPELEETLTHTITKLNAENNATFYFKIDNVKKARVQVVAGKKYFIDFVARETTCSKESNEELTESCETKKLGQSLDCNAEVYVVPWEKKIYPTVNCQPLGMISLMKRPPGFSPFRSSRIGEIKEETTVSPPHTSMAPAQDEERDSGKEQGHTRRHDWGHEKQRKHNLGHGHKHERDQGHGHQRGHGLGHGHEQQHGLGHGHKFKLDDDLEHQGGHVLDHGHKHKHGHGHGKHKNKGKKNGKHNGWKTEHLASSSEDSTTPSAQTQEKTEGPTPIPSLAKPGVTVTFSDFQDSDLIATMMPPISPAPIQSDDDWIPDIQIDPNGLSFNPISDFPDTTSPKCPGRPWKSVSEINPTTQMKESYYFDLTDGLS
Kind of assay: ELISA. For orientation: ELISA stands for enzyme-linked immunosorbent assay.

B1: prekallikrein (PK), purified protein used in ELISA (natural protein)
chain: not shown
In the case of B1, the binding result is on record as “binds”.
